In publication PMC7117775, “CsIVP functions in vasculature development and downy mildew resistance in cucumber”:

Tests used:
[1] = target: T1, CsIVP (Irregular Vasculature Patterning, bHLH) (Cucumis sativus, UniProt A0A0A0KHS6 1-223); assay: EMSA; 80, 120, 160 fmol probe; cold competitor; LightShift Chemiluminescent EMSA Kit (Thermo 20148), manufacturer's instructions; buffer, salt, pH and temperature not stated; settings: protein: recombinant; tags: pET-28a vector (Ni-NTA purified); chain copies: 2; label: 5' biotin on forward strand; blunt
T1 sequence: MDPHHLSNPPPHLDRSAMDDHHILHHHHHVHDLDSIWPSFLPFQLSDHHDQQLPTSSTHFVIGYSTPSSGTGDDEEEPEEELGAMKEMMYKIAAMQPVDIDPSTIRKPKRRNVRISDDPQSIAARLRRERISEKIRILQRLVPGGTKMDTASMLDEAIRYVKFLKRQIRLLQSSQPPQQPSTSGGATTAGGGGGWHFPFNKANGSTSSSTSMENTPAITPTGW

[2] = target: T1, CsIVP (Irregular Vasculature …); assay: EMSA; 80, 120, 160 fmol probe; LightShift Chemiluminescent EMSA Kit (Thermo 20148), manufacturer's instructions; buffer, salt, pH and temperature not stated; settings: protein: recombinant; tags: pET-28a vector (Ni-NTA purified); chain copies: 2; label: 5' biotin on forward strand; blunt

Binder	binding result [1]	binding result [2]
CsAUX4 promoter probe (-1492) (dsDNA) DNA 1: AGGGATGGAGGTGAGCACATGGGAGGGCCGCTGCC DNA 2: GGCAGCGGCCCTCCCATGTGCTCACCTCCATCCCT	binds	–
CsCCR1 promoter probe (-1939) (dsDNA) DNA 1: CAAAATTGACTTCTTCCACTTGTGCAGTCAAACAGTTC DNA 2: GAACTGTTTGACTGCACAAGTGGAAGAAGTCAATTTTG	–	no binding
CsYAB5 promoter probe (-1626) (dsDNA) DNA 1: TATAAAATTGTTTTAACCAATTGAGTTATATACATTCAA DNA 2: TTGAATGTATATAACTCAATTGGTTAAAACAATTTTATA	binds	–
CsBP promoter probe (-333) (dsDNA) DNA 1: ACTTTAATGGCGCACCCTCAACTGAGATATCTATACCC DNA 2: GGGTATAGATATCTCAGTTGAGGGTGCGCCATTAAAGT	binds	–
